According to patent US20230192896A1 (BIOVERATIV THERAPEUTICS, published 2023):
Values belong to the binder of their own block, whether it stands above or below them.

Legend:
FX zymogen = biological target: T1, FX zymogen (Homo sapiens (Human), UniProt P00742 41-179; P00742 183-488); assay: not stated (Table 3)
T1 construct: Light and heavy chain of secreted FX zymogen, disulfide linked; also called Factor X zymogen; factor X zymogen

[1] = biological target: T2, free FIXa (activated Factor IX) (human, UniProt P00740 47-191; P00740 227-461); assay: BLI, IgG on AHQ sensor, 100 nM antigen (the weaker partner)
T2 construct: BLI antigen bought from Haematologic Technologies (HCIXA-0050); also called factor IXa
Description: BLI was performed on the OctetRed94 or the Octet HTX system, according to standard procedure. Briefly, biosensors were equilibrated in Tris-buffered saline supplemented with 5 mM CaCl₂ and 0.1% bovine serum albumin (TBSFCa). Plates were then transferred to the instrument. A soak step was performed on the instrument, with incubation of the biosensors for 60 seconds in TBSFCa. […] Following this, the biosensors were incubated in TBSFCa for 60 seconds to establish baseline. Next, the biosensors were transferred to wells containing the desired antigen (100 nM in TBSFCa) and incubated for 90 seconds. Finally, the sensors were transferred to TBSFCa alone for 90 seconds incubation.

FXa-SM (FXa+EGR-CMK) = biological target: T3, FXa-SM (FXa+EGR-CMK) (human, UniProt P00742 41-179; P00742 235-488, EGR-CMK covalently bound to the active site); assay: BLI; class meaning: paragraph 285
T3 construct: Bought from Haematologic Technologies (HCXA-EGR); also called covalently modified FXa; FXa mimic
T3 sequence (P00742 41-179, chain 1 of 2): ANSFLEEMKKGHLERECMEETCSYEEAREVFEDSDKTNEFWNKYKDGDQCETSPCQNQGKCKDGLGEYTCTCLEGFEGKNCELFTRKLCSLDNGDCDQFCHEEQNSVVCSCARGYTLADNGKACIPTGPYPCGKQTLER
T3 sequence (P00742 235-488, chain 2 of 2): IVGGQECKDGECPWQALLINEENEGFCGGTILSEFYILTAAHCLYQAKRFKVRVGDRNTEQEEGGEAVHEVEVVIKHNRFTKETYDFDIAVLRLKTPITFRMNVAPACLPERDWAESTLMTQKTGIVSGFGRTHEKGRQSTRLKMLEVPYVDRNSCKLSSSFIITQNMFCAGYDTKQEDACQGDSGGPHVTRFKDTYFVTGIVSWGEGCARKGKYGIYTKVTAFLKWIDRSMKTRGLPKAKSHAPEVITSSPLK

FIXa-SM (FIXa+EGR-CMK) [2] = biological target: T4, FIXa-SM (FIXa+EGR-CMK) (human, UniProt P00740 47-191; P00740 227-461, EGR-CMK (L-Glu-Gly-Arg chloromethyl ketone) covalently bound to the active site); assay: BLI; class meaning: paragraph 914
T4 construct: BLI antigen bought from Haematologic Technologies (HCIXA-EGR); also called FIXa with substrate mimic

[3] = biological target: T2, free FIXa (activated Factor IX); assay: BLI, 200 nM FIXa in HBS with or without 5 mM CaCl2
[4] = biological target: T2, free FIXa (activated Factor IX); assay: cell-based or functional assay
[5] = biological target: T2, free FIXa (activated Factor IX); assay: Fab mixed 1.5:1 with FIXa, complex purified by size exclusion chromatography
Excerpt: To do this, we first cloned, expressed, and purified only the Fab portion of each of these antibodies using standard methods. Subsequently, we mixed each Fab in a 1.5:1 molar ratio with FIXa in a calcium containing buffer and purified the resulting complex from excess Fab using size exclusion chromatography.

[6] = biological target: T2, free FIXa (activated Factor IX); assay: yeast display selection and BLI as in Examples 1 and 5
FIXa-SM (FIXa+EGR-CMK) [7] = biological target: T4, FIXa-SM (FIXa+EGR-CMK); assay: BLI co-binding: biotinylated FIXa-SM on streptavidin sensor, then 100 nM bispecific, then 200 nM FX
Description: Following incubation in Tris-buffered saline supplemented with 0.1% bovine serum albumin and 5 mM CaCl₂ (referred to as buffer in FIG. 21), the biosensors were then incubated with biotinylated FIXa-SM produced in-house. […] Finally, the same biosensors were incubated with 200 nM of non-biotinylated FX (non-activated Factor X).

T1 sequence (P00742 41-179, chain 1 of 2): as the sequence (P00742 41-179, chain 1 of 2) above
T1 sequence (P00742 183-488, chain 2 of 2): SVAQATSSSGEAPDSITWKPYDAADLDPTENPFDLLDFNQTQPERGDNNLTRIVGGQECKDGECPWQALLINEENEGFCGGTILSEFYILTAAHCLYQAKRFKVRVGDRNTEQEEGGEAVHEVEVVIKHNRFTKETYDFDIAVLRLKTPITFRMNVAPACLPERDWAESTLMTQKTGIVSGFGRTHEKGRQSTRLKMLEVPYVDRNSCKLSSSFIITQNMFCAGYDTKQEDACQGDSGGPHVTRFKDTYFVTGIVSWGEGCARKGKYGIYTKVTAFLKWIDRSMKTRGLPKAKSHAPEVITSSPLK

B1: BS-027 (antibody, V domains shown)
VH: EVQLVQSGAEVKKPGESLKISCKGSGYSFTTYWIGWVRQMPGKGLEWMGIIYPGDSDTRYSPSFQGQVTISADKSISTAYLQWSSLKASDTAMYYCARGRFRPRGRFDYWGQGTLVTVSS
VL: EIVMTQSPATLSVSPGERATLSCRASQSVSSNLAWYQQKPGQAPRLLIYGASTRATGIPARFSGSGSGTEFTLTISSLQSEDFAVYYCQQLFNHPPTFGGGTKVEIK
notes: also called anti-FX arm of BS-027025 and BS-027125; BS-027 FX homodimer
Kd (FX zymogen): 20 nM

B2: BIIB-9-397 (antibody, V domains shown)
VH: QVQLQESGPGLVKPSETLSLTCAVSGYSISSGYYWAWIRQPPGKGLEWIGSIYHSGSTYYNPSLKSRVTISVDTSKNQFSLKLSSVTAADTAVYYCARDVWYVGGFDPWGQGTLVTVSS
VL: DIQMTQSPSSLSASVGDRVTITCQASQDISNYLNWYQQKPGKAPKLLIYDASNLETGVPSRFSGSGSGTDFTFTISSLQPEDIATYYCQQSDDHPPTFGGGTKVEIK
notes: IgG
binding result [1]: binds

B3: BIIB-12-894 (antibody, V domains shown)
VH: QLQLQESGPGLVKPSETLSLTCTVSGGSISSSSYYWGWIRQPPGKGLEWIGSIYYSGSTYYNPSLKSRVTISVDTSKNQFSLKLSSVTAADTAVYYCAREGAHSSMAGLDVWGQGTMVTVSS
VL: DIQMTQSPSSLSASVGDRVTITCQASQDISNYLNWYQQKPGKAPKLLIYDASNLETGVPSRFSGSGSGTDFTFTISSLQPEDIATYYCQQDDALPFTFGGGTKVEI
notes: IgG
binding result (FXa-SM (FXa+EGR-CMK)): binds

B4: BIIB-9-484 (antibody, V domains shown)
VH: EVQLVESGGGLVKPGGSLRLSCAASGFTFSSYSMNWVRQAPGKGLEWVSSISSSSSYIYYADSVKGRFTISRDNAKNSLYLQMNSLRAEDTAVYYCARDVGGYAGYYGMDVWGQGTTVTVSS
VL: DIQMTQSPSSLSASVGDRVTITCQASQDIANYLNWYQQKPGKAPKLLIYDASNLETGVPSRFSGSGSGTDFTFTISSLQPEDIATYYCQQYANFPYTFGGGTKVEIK
notes: IgG
binding result (FIXa-SM (FIXa+EGR-CMK) [2]): binds | binding result [3]: binds

B5: BIIB-9-1335 (antibody, V domains shown)
VH: EVQLVESGGGLVKPGGSLRLSCAASGFTFSSYDMHWVRQAPGKGLEWVSSISSGSSYIYYADSVKGRFTISRDNAKNSLYLQMNSLRAEDTAVYYCARDVGGYAGYYGMDVWGQGTTVTVSS
VL: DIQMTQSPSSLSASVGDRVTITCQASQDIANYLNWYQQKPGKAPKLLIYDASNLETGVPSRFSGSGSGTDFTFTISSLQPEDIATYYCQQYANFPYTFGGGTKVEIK
rate of ATIII inhibition of FIXa (ATIII-FIXa complex band on gel) [4]: ~3 fold

B8: BIIB-9-1336 one-armed (antibody, V domains shown)
VH: EVQLVESGGGLVKPGGSLRLSCAASGFTFGSYDMNWVRQAPGKGLEWVSSISSGESYIYYAESVKGRFTISRDNAKNSLYLQMNSLRAEDTAVYYCARDVGGYAGYYGMDVWGQGTTVTVSS
VL: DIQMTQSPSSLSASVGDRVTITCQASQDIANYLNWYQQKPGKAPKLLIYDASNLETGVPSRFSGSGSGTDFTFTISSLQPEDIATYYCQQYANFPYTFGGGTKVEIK
rate of substrate (ADG299) cleavage by FIXa (amidolytic activity) [4]: 3 fold

B10: BIIB-9-1336 (antibody, V domains shown)
VH: EVQLVESGGGLVKPGGSLRLSCAASGFTFGSYDMNWVRQAPGKGLEWVSSISSGESYIYYAESVKGRFTISRDNAKNSLYLQMNSLRAEDTAVYYCARDVGGYAGYYGMDVWGQGTTVTVSS
VL: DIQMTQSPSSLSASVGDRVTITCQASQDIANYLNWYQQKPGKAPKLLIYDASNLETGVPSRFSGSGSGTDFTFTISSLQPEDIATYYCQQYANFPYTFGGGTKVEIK
rate of ATIII inhibition of FIXa (ATIII-FIXa complex band on gel) [4]: ~3 fold | rate of substrate (ADG299) cleavage by FIXa (amidolytic activity) [4]: 3 fold

B14: BIIB-9-578 (antibody, V domains shown)
VH: QLQLQESGPGLVKPSETLSLTCTVSGGSISSSSYYWGWIRQPPGKGLEWIGSISYSGSTYYNPSLKSRVTISVDTSKNQFSLKLSSVTAADTAVYYCARDKYQDYSFDIWGQGTMVTVSS
VL: DIQMTQSPSSVSASVGDRVTITCRASQGIDSWLAWYQQKPGKAPKLLIYAASSLQSGVPSRFSGSGSGTDFTLTISSLQPEDFATYYCQQANFLPFTFGGGTKVEIK
notes: IgG
binding result [1]: binds

The remaining lines, values ahead:

binding result [5]: binds
B6: Fab portion of BIIB-9-484 (Fab, V domains shown)
VH: EVQLVESGGGLVKPGGSLRLSCAASGFTFSSYSMNWVRQAPGKGLEWVSSISSSSSYIYYADSVKGRFTISRDNAKNSLYLQMNSLRAEDTAVYYCARDVGGYAGYYGMDVWGQGTTVTVSS
VL: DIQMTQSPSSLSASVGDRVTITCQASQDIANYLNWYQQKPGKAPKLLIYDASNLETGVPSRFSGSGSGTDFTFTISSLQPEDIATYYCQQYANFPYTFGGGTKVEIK
notes: Fab

binding result [6]: binds
B7: BIIB-9-3764 (antibody, V domains shown)
VH: EVQLVESGGGLVKPGGSLRLSCAASGFTFGSYDMNWVRQAPGKGLEWVSSISSGESYIYYAESVKGRFTISRDNAKNSLYLQMNSLRAEDTAVYYCARDVGGYAGYYGMDVWGQGTTVTVSS
VL: DIQMTQSPSSLSASVGDRVTITCGANQYISDYLNWYQQKPGKAPKLLIYDAANLHTGVPSRFSGSGSGTDFTFTISSLQPEDIATYYCQQYARFPYTFGGGTKVEIK

binding result (FIXa-SM (FIXa+EGR-CMK) [7]): binds
B9: BIIB-9-484/BIIB-12-917 (bispecific antibody, V domains shown)
VH 1: EVQLVESGGGLVKPGGSLRLSCAASGFTFSSYSMNWVRQAPGKGLEWVSSISSSSSYIYYADSVKGRFTISRDNAKNSLYLQMNSLRAEDTAVYYCARDVGGYAGYYGMDVWGQGTTVTVSS
VL 1: not shown
VH 2: EVQLVQSGAEVKKPGESLKISCKGSGYSFTTYWIGWVRQMPGKGLEWMGIIYPGDSDTRYSPSFQGQVTISADKSISTAYLQWSSLKASDTAMYYCARGRFRPRGRFDYWGQGTLVTVSS
VL 2: EIVMTQSPATLSVSPGERATLSCRASQSVSSNLAWYQQKPGQAPRLLIYGASTRATGIPARFSGSGSGTEFTLTISSLQSEDFAVYYCQQLFNHPPTFGGGTKVEIK

binding result [1]: binds
B11: BIIB-9-612 (antibody, V domains shown)
VH: QVQLVQSGAEVKKPGASVKVSCKASGYTFTSYYMHWVRQAPGQGLEWMGIINPSGGSTSYAQKFQGRVTMTRDTSTSTVYMELSSLRSEDTAVYYCARDAGYHWYGMDVWGQGTTVTVSS
VL: EIVLTQSPATLSLSPGERATLSCRASQSVSRYLAWYQQKPGQAPRLLIYDASNRATGIPARFSGSGSGTDFTLTISSLEPEDFAVYYCQQSSLFPLTFGGGTKVEIK
notes: IgG

binding result (FXa-SM (FXa+EGR-CMK)): binds
B12: BIIB-12-1321 (antibody, V domains shown)
VH: QVQLVQSGAEVKKPGSSVKVSCKASGGTFSSYAISWVRQAPGQGLEWMGGIIPIFGTANYAQKFQGRVTITADESTSTAYMELSSLRSEDTAVYYCARTPDTSSATDWGQGTLVTVSS
VL: EIVMTQSPATLSLSPGERATLSCRASQSVSSYLAWYQQKPGQAPRLLIYDSSNRATGIPARFSGSGSGTDFTLTISSLEPEDFAVYYCQQFTNLPYTFGGGTKVEIK
notes: IgG

binding result [6]: binds
B13: BIIB-9-3745 (antibody, V domains shown)
VH: QVQLVQSGAEVKKPGASVKVSCKASGYTFTGYPMHWVRQAPGQGLEWMGSINPSRGSTSYAQKFQGRVTMTRDTSTSTVYMELSSLRSEDTAVYYCARDGPRVSDYYMDVWGKGTTVTVSS
VL: EIVLTQSPATLSLSPGERATLSCRASQSVSSYLAWYQQKPGQAPRLLIYDASNRATGIPARFSGSGSGTDFTLTISSLEPEDFAVYYCQQRDNWPFTFGGGTKVEIK
notes: daughter of BIIB-9-619

binding result [1]: binds
B15: BIIB-9-631 (antibody, V domains shown)
VH: QVQLVQSGAEVKKPGASVKVSCKASGYTFTSYYMHWVRQAPGQGLEWMGIINPSGGSTSYAQKFQGRVTMTRDTSTSTVYMELSSLRSEDTAVYYCARAENRGDYEAWGQGTLVTVSS
VL: DIQMTQSPSSVSASVGDRVTITCRASQGISRWLAWYQQKPGKAPKLLIYAASSLQSGVPSRFSGSGSGTDFTLTISSLQPEDFATYYCQQRTSFPLTFGGGTKVEIK
notes: IgG

binding result (FXa-SM (FXa+EGR-CMK)): binds
B16: BIIB-12-1320 (antibody, V domains shown)
VH: QLQLQESGPGLVKPSETLSLTCTVSGGSISSSSYYWGWIRQPPGKGLEWIGSIYYSGSTYYNPSLKSRVTISVDTSKNQFSLKLSSVTAADTAVYYCARGSGLLVREHYYYYMDVWGKGTTVTVS
VL: DIQMTQSPSSLSASVGDRVTITCRASQSISSYLNWYQQKPGKAPKLLIYAASSLQSGVPSRFSGSGSGTDFTLTISSLQPEDFATYYCQQADDTPWTFGGGTKVEIK
notes: IgG

binding result [6]: binds
B17: BIIB-9-3704 (antibody, V domains shown)
VH: QVQLQESGPGLVKPSQTLSLTCTVSGGSISSGAYAWSWIRQHPGKGLEWIGYIYYQGKTYYNPSLKSRVTISVDTSKNQFSLKLSSVTAADTAVYYCARDKYQDYSFDIWGQGTMVTVSS
VL: DIQMTQSPSSVSASVGDRVTITCRASQGIDSWLAWYQQKPGKAPKLLIYAASSLQSGVPSRFSGSGSGTDFTLTISSLQPEDFATYYCQQANFLPFTFGGGTKVEIK
notes: daughter of BIIB-9-578

binding result [6]: binds
B18: BIIB-9-3780 (antibody, V domains shown)
VH: QLQLQESGPGLVKPSETLSLTCTVSGGSISSSSYYWGWIRQPPGKGLEWIGSISYSGSTYYNPSLKSRVTISVDTSKNQFSLKLSSVTAADTAVYYCARDKYQDYSVDIWGQGTMVTVSS
VL: DIQMTQSPSSVSASVGDRVTITCRASQGIDSWLAWYQQKPGKAPKLLIYAASSLQSGVPSRFSGSGSGTDFTLTISSLQPEDFATYYCQQANFLPFTFGGGTKVEIK
notes: daughter of BIIB-9-578

binding result [6]: binds
B19: BIIB-9-3684 (antibody, V domains shown)
VH: QLQLQESGPGLVKPSETLSLTCTVSGGSISSVSYYWNWIRQPPGKGLEWIGSITYSGSTQYNPSLKSRVTISVDTSKNQFSLKLSSVTAADTAVYYCARDKYQDYSFDIWGQGTMVTVSS
VL: DIQMTQSPSSVSASVGDRVTITCRASQGIDSWLAWYQQKPGKAPKLLIYAASSLQSGVPSRFSGSGSGTDFTLTISSLQPEDFATYYCQQANFLPFTFGGGTKVEIK
notes: daughter of BIIB-9-578

binding result [6]: binds
B20: BIIB-9-3698 (antibody, V domains shown)
VH: QLQLQESGPGLVKPSETLSLTCTVSGGSIASSSYYWSWIRQPPGKGLEWIGSIRGSGSTYYNPSLKSRVTISVDTSKNQFSLKLSSVTAADTAVYYCARDKYQDYSFDIWGQGTMVTVSS
VL: DIQMTQSPSSVSASVGDRVTITCRASQGIDSWLAWYQQKPGKAPKLLIYAASSLQSGVPSRFSGSGSGTDFTLTISSLQPEDFATYYCQQANFLPFTFGGGTKVEIK
notes: daughter of BIIB-9-578
